The assay deals with Protease Mixtures. The assay is described as follows: cell-based or functional assay.

B1: Variant A2M, bait region SEQ ID NO 128, P01023 24-1474 (protein)
chain: SVSGKPQYMVLVPSLLHTETTEKGCVLLSYLNETVTVSASLESVRGNRSLFTDLEAENDVLHCVAFAVPKSSSNEEVMFLTVQVKGPTQEFKKRTTVMVKNEDSLVFVQTDKSIYKPGQTVKFRVVSMDENFHPLNELIPLVYIQDPKGNRIAQWQSFQLEGGLKQFSFPLSSEPFQGSYKVVVQKKSGGRTEHPFTVEEFVLPKFEVQVTVPKIITILEEEMNVSVCGLYTYGKPVPGHVTVSICRKYSDASDCHGEDSQAFCEKFSGQLNSHGCFYQQVKTKVFQLKRKEYEMKLHTEAQIQEEGTVVELTGRQSSEITRTITKLSFVKVDSHFRQGIPFFGQVRLVDGKGVPIPNKVIFIRGNEANYYSNATTDEHGLVQFSINTTNVMGTSLTVRVNYKDRSPCYGYQWVSEEHEEAHHTAYLVFSPSKSFVHLEPMSHELPCGHTQTVQAHYILNGGTLLGLKKLSFYYLIMAKGGIVRTGTHGLLVKQEDMKGHFSISIPVKSDIAPVARLLIYAVLPTGDVIGDSAKYDVENCLANKVDLSFSPSQSLPASHAHLRVTAAPQSVCALRAVDQSVLLMKPDAELSASSVYNLLPEKDLTGFPGPLNDQDDEDCINRHNVYINGITYTPVSSTNEKDMYSFLEDMGLKAFTNSKIRKPKMCPQLEQYEMHGPSELEGRGSEAIPMSIPTKEEEGLGSIPENFFGVVEEPHTKLRKYFPETWIWDLVVVNSAGVAEVGVTVPDTITEWKAGAFCLSEDAGLGISSTASLRAFQPFFVELTMPYSVIRGEAFTLKATVLNYLPKCIRVSVQLEASPAFLAVPVEKEQAPHCICANGRQTVSWAVTPKSLGNVNFTVSAEALESQELCGTEVPSVPEHGRKDTVIKPLLVEPEGLEKETTFNSLLCPSGGEVSEELSLKLPPNVVEESARASVSVLGDILGSAMQNTQNLLQMPYGCGEQNMVLFAPNIYVLDYLNETQQLTPEIKSKAIGYLNTGYQRQLNYKHYDGSYSTFGERYGRNQGNTWLTAFVLKTFAQARAYIFIDEAHITQALIWLSQRQKDNGCFRSSGSLLNNAIKGGVEDEVTLSAYITIALLEIPLTVTHPVVRNALFCLESAWKTAQEGDHGSHVYTKALLAYAFALAGNQDKRKEVLKSLNEEAVKKDNSVHWERPQKPKAPVGHFYEPQAPSAEVEMTSYVLLAYLTAQPAPTSEDLTSATNIVKWITKQQNAQGGFSSTQDTVVALHALSKYGAATFTRTGKAAQVTIQSSGTFSSKFQVDNNNRLLLQQVSLPELPGEYSMKVTGEGCVYLQTSLKYNILPEKEEFPFALGVQTLPQTCDEPKAHTSFQISLSVSYTGSRSASNMAIVDVKMVSGFIPLKPTVKMLERSNHVSRTEVSSNHVLIYLDKVSNQTLSLFFTVLQDVPVRDLKPAIVKVYDYYETDEFAIAEYNAPCSKDLGNADYKDDDDKGASHHHHHH
With B1, the Protease Inhibition (% of WT); Protease Mixtures, IGD Substrate was 125 % of WT.
